The results in this text go back to patent publication US20240116985A1 (published 2024).

Starred links: 1 amine or outer side, 2 acyl side, 3 side chain; linkers in the order of their positions; H or OH if unused. Positions of bridges follow the written chain, without caps; N, C: chain ends. Non-standard residues stand in square brackets, D forms with d. Primed or numbered codes have the meaning given here. *: point of attachment. PyrS2(3) = (S)-3-amino-1-((pent-4-en-1-yloxy)carbonyl)pyrrolidine-3-carboxylic acid, stapling residue, C=CCCCOC(=O)N1CC[C@@](N[*:1])(C(=O)[*:2])C1; PyrS2″ = (S)-3-amino-1-((pent-4-en-1-yloxy)carbonyl)pyrrolidine-3-carboxylic acid (stapling residue), C=CCCCOC(=O)N1CC[C@@](N[*:1])(C(=O)[*:2])C1; B5(18) = 2,2-bis(4-pentenyl)glycine (2-amino-2-(pent-4-en-1-yl)hept-6-enoic acid), stitching residue, C=CCCCC(CCCC=C)(N[*:1])C(=O)[*:2]; B5(23) = 2-amino-2-(pent-4-en-1-yl)hept-6-enoic acid (2,2-bis(4-pentenyl)glycine), stitching residue, C=CCCCC(CCCC=C)(N[*:1])C(=O)[*:2]; TfeGA = (S)-2-amino-3-((carboxymethyl)(2,2,2-trifluoroethyl)amino)propanoic acid, O=C([C@H](CN(CC(=O)[*:3])CC(F)(F)F)N[*:1])[*:2]; PyrS2 = (S)-3-amino-1-((pent-4-en-1-yloxy)carbonyl)pyrrolidine-3-carboxylic acid, C=CCCCOC(=O)N1CC[C@@](N[*:1])(C(=O)[*:2])C1; PyrS3 = (S)-3-amino-1-((hex-5-en-1-yloxy)carbonyl)pyrrolidine-3-carboxylic acid, C=CCCCCOC(=O)N1CC[C@@](N[*:1])(C(=O)[*:2])C1; B5(7) = 2-amino-2-(pent-4-en-1-yl)hept-6-enoic acid, two olefinic side chains, C=CCCCC(CCCC=C)(N[*:1])C(=O)[*:2]; HypEs5 = (2R,4S)-4-(pent-4-enoyloxy)pyrrolidine-2-carboxylic acid, C=CCCC(=O)O[C@H]1C[C@H](C(=O)[*:2])N([*:1])C1; GA = (S)-2-amino-3-((carboxymethyl)amino)propanoic acid, O=C([C@H](CNCC(=O)[*:3])N[*:1])[*:2]; Phe(2-Cl) = N[C@@H](Cc1ccccc1Cl)C(=O)O; Bta = N[C@@H](Cc1csc2ccccc12)C(=O)O; αAllylPro = C=CC[C@@]1(C(=O)O)CCCN1; tBuAla = CC(C)(C)C[C@H](N)C(=O)O; 3Thi = N[C@@H](Cc1ccsc1)C(=O)O; Pfb = not defined here; Ms = CS(=O)(=O)*

First the molecules themselves.
T1: beta-catenin in DLD1 TCF/LEF luciferase reporter cells (UniProt P35222 1-781)
T1 sequence (looked up): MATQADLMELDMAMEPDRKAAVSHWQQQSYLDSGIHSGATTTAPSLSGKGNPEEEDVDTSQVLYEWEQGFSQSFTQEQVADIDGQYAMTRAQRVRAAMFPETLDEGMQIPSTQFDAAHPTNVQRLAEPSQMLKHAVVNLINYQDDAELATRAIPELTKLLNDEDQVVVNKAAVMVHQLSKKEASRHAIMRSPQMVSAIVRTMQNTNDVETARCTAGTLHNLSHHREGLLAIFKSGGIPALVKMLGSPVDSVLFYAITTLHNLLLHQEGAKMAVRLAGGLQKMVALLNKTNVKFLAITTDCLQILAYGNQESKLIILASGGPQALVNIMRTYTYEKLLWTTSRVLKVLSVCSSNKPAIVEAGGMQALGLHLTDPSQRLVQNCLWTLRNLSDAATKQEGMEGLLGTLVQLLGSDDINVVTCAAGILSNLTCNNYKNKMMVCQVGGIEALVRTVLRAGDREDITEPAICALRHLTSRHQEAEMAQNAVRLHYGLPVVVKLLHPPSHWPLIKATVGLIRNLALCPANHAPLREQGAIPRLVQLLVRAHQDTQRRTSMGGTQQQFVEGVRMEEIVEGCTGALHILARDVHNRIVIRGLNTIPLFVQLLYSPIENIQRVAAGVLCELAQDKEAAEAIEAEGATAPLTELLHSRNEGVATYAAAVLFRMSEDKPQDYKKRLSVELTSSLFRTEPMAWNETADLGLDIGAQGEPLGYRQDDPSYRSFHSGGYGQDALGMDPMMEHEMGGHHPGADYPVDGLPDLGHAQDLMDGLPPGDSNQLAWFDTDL

T2: B-cat-Halo (UniProt P35222 1-781)
T2 sequence (looked up): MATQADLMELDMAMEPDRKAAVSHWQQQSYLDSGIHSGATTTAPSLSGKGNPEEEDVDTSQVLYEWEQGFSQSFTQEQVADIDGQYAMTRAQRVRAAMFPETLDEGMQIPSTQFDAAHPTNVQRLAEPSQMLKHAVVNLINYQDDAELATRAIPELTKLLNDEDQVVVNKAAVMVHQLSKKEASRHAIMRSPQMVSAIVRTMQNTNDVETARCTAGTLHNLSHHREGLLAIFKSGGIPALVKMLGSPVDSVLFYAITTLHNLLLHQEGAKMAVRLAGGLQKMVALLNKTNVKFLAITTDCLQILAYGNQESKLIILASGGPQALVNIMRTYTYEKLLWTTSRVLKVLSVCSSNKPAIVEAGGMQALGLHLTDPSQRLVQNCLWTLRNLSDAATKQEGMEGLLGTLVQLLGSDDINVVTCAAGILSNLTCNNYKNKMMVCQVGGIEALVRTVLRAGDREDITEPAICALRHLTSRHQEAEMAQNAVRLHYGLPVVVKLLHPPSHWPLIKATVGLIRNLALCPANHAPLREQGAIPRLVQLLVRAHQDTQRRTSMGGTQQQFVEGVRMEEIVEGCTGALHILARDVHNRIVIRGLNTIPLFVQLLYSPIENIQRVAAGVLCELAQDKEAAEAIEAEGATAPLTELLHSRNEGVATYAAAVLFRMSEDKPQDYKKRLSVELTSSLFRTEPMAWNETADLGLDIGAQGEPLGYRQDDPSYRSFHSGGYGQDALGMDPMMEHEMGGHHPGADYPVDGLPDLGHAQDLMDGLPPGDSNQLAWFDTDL

T3: B-cat-Halo (NanoBRET construct expressed in HEK293 cells) (UniProt P35222 1-781, HaloTag NanoBRET 618 Ligand bound in the assay)
T3 sequence (looked up): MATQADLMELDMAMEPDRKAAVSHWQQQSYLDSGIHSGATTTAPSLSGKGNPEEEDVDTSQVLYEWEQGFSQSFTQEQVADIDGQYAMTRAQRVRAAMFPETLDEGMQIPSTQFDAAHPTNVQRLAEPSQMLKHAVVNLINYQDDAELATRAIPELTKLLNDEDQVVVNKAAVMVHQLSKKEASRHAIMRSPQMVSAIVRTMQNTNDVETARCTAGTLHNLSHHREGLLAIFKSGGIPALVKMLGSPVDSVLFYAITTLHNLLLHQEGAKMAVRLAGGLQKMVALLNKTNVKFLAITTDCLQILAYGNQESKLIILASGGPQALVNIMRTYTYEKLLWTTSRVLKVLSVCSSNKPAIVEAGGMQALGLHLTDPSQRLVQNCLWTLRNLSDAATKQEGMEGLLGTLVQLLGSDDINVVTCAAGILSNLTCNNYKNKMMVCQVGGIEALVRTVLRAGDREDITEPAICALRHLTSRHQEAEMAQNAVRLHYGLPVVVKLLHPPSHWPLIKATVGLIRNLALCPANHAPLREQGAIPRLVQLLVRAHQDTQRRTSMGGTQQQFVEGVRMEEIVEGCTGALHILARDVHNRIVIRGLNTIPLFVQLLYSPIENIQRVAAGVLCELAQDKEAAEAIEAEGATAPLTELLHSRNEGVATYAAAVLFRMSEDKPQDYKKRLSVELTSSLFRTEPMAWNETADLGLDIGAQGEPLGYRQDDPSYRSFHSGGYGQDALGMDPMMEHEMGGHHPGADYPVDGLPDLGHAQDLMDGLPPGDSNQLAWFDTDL

B1: I-1019 (peptide)
peptide: Ac-[αAllylPro]D[tBuAla][B5(18)]DDAAFS[PyrS2″][Phe(2-Cl)][Bta]S-NH2
modifications: staple 1-4, 4-11
B2: I-1574 (peptide)
peptide: Ms-[HypEs5]D[tBuAla][B5(23)]DDAAFN[PyrS2][3Thi][Bta]Q-NH2
modifications: staple 1-4, 4-11; not fully specified; printed as MeSO2-HypEs5-Asp-Npg-B5-Asp-Asp-Ala-Ala-Phe-Asn-PyrS2-3Thi-BztA-Gln-NH2
B3: I-1572 (peptide)
peptide: Ac-[αAllylPro]D[tBuAla][B5(23)]D[GA]AAFN[PyrS2][Phe(2-Cl)][Bta]Q-NH2
modifications: staple 1-4, 4-11
B4: I-1567 (peptide)
peptide: Ac-[αAllylPro]D[tBuAla][B5(23)]NQAAFN[PyrS2][3Thi][Bta]Q-NH2
modifications: staple 1-4, 4-11; not fully specified; printed as Ac-PL3-Asp-Npg-B5-Asn-Gln-Ala-Ala-Phe-Asn-PyrS2-3Thi-BztA-Gln-NH2
B5: I-1571 (peptide)
peptide: Ac-[αAllylPro]D[tBuAla][B5(23)]D[GA](Pfb)AAFN[PyrS2][Phe(2-Cl)][Bta]Q-NH2
modifications: staple 1-4, 4-11; reading uncertain; also: printed as Ac-PL3-Asp-Npg-B5-Asp-[Pfb]GA-Ala-Ala-Phe-Asn-PyrS2-2C1F-BztA-Gln-NH2
B6: I-1565 (peptide)
peptide: Ac-[αAllylPro]D[tBuAla][B5(23)]NTAAFN[PyrS2][3Thi][Bta]Q-NH2
modifications: staple 1-4, 4-11; not fully specified; printed as Ac-PL3-Asp-Npg-B5-Asn-Thr-Ala-Ala-Phe-Asn-PyrS2-3Thi-BztA-Gln-NH2
B7: I-1556 (peptide)
peptide: Ac-[αAllylPro]DA[B5(23)]NNAAFN[PyrS2][3Thi][Bta]Q-NH2
modifications: staple 1-4, 4-11
B8: I-1573 (peptide)
peptide: Ac-[HypEs5]D[tBuAla][B5(23)]DDAAFN[PyrS2][3Thi][Bta]Q-NH2
modifications: staple 1-4, 4-11
B9: I-1566 (peptide)
peptide: Ac-[αAllylPro]D[tBuAla][B5(23)]NQAAFN[PyrS2][3Thi][Bta]Q-NH2
modifications: staple 1-4, 4-11; also: earlier-eluting HPLC staple isomer
B10: I-1557 (peptide)
peptide: Ac-[αAllylPro]D[tBuAla][B5(23)]NNAAFL[PyrS2][3Thi][Bta]Q-NH2
modifications: staple 1-4, 4-11
B11: I-1564 (peptide)
peptide: Ac-[αAllylPro]D[tBuAla][B5(23)]NTAAFN[PyrS2][3Thi][Bta]Q-NH2
modifications: staple 1-4, 4-11; also: earlier-eluting HPLC staple isomer
B12: I-1578 (peptide)
peptide: Ac-[αAllylPro]D[tBuAla][B5(23)]D[3TzF]AAFN[PyrS2(3)][3Thi][Bta]Q-NH2
modifications: staple 1-4, 4-11
B13: I-763 (peptide)
peptide: Ac-[αAllylPro]D[tBuAla][B5(7)]DDAAFQ[PyrS2][3Thi][Bta]Q-NH2
modifications: staple 1-4, 4-11
B14: I-768 (peptide)
peptide: Ac-[αAllylPro]D[tBuAla][B5(7)]DDAAFN[PyrS3][3Thi][Bta]Q-NH2
modifications: staple 1-4, 4-11
B15: I-771 (peptide)
peptide: Ac-[αAllylPro]D[tBuAla][B5(7)]DDAAFQ[PyrS2][3Thi][Bta]H-NH2
modifications: staple 1-4, 4-11
B16: I-770 (peptide)
peptide: Ac-[αAllylPro]D[tBuAla][B5(7)]D[TfeGA]AAFN[PyrS2][3Thi][Bta]H-NH2
modifications: staple 1-4, 4-11

One assay concerns the target T1, beta-catenin in DLD1 TCF/LEF luciferase …. As to the kind of experiment: cell-based or functional assay.
Regarding B1, the “DLD1 reporter assay Abs IC50” value turned out to be 8.3 µM.

Another assay concerns the target T2, B-cat-Halo. As to the kind of experiment: cell-based or functional assay.
On to B2, for which the “NanoBRET Abs IC50” value is more than 20 µM. Same read-out and setting: for B3 the value was more than 20 µM. Same read-out and setting: for B4 the value was more than 20 µM; for B5, 11.7 µM. As to B6, the “NanoBRET Abs IC50” value was more than 20 µM.

On to B7, for which the “NanoBRET Abs IC50” value was more than 20 µM. On the same count and under the same terms, as for B8, the figure is more than 20 µM; as for B9, more than 20 µM. Same read-out and setting: as for B10, the figure is more than 20 µM; as for B11, more than 20 µM. Turning to B12, the “NanoBRET Abs IC50” value was more than 20 µM.

The next assay addresses T3, B-cat-Halo (NanoBRET construct …). As to the kind of experiment: cell-based or functional assay.
In the case of B13, the “NanoBRET Abs IC50” value stood at 21.3 µM. Take B14: the “NanoBRET Abs IC50” value stood at 31.4 µM. Same read-out and setting: as for B15, the figure is 37.3 µM; as for B16, 13.7 µM.
